Bridge positions count the residues as written; N and C are the ends. Square brackets hold non-standard residues; d marks the D form. Ends that are not written are not given here.

In this assay the target is hMuSK-Fc (chimeric protein of the secretory human MuSK extracellular portion and human IgG1 Fc) (human) (UniProt O15146). The assay is described as follows: SPR (Biacore T200), Fc-tagged human MuSK on Protein G/A chip, 1:1 fit. In general terms: Surface plasmon resonance follows binding to a sensor surface in real time, without labels.
Sequence of hMuSK-Fc (chimeric protein of the secretory human MuSK extracellular portion and human IgG1 Fc) (human) (O15146 24-493, change not shown, form in doubt): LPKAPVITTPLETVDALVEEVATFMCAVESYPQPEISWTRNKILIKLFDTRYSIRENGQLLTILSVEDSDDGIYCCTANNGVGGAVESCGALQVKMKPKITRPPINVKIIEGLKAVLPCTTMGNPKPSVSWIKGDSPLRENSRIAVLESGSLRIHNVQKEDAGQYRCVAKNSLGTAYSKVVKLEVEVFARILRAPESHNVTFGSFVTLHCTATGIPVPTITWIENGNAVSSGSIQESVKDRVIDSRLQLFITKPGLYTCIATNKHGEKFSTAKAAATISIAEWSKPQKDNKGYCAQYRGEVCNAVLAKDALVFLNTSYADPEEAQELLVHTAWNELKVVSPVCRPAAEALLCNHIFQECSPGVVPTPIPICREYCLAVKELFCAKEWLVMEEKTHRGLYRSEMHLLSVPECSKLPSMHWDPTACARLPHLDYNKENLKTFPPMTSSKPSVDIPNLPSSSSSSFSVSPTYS

B1: Homodimer of MuSK7 with an introduced palmitoyl group (MuSK7-pal) (peptide)
peptide: {CH2CO}-[dY]PSYHTNVVASLKRC
modifications: thioether N-15; also: homodimer: two peptides condensed via C-terminal Cys carboxyl with linking unit bearing palmitic acid
What is called Kd is a measure of binding affinity in units of concentration. As for B1, the dissociation constant Kd was determined as 0.9 nM.

For the origin of these results see patent EP4722228A1, “NEW COMPOUND TARGETING MUSK AND USE THEREOF” (The University of Tokyo, priority 2023, dated 2024).
